Experimental data taken from publication PMC10397247.
Where two headings read alike, the source gives them in different places.

Assays:
Assay in all cases: two-hybrid library CCmax;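 note: natural log of median RNA to DNA barcode read ratio; higher means stronger binding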
4H993-AA = biological target: T1, 4H993-AA; conditions: mean of both orientations
T1 chain: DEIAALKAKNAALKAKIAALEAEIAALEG

4H2505-AA = biological target: T2, 4H2505-AA; conditions: mean of both orientations
T2 chain: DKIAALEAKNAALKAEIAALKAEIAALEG

4H3112-AA = biological target: T3, 4H3112-AA; conditions: mean of both orientations
T3 chain: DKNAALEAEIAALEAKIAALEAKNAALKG

4H2393-AA = biological target: T4, 4H2393-AA; conditions: mean of both orientations
T4 chain: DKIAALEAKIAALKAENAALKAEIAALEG

4H2754-AA = biological target: T5, 4H2754-AA; conditions: mean of both orientations
T5 chain: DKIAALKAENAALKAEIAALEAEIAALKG

4H2944-AA = biological target: T6, 4H2944-AA; conditions: mean of both orientations
T6 chain: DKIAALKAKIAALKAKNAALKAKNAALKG

4H2617-AA = biological target: T7, 4H2617-AA; conditions: mean of both orientations
T7 chain: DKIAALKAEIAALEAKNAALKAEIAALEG

4H881-AA = biological target: T8, 4H881-AA; conditions: mean of both orientations
T8 chain: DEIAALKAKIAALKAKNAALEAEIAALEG

4H2466-AA = biological target: T9, 4H2466-AA; conditions: mean of both orientations
T9 chain: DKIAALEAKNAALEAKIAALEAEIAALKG

4H906-AA = biological target: T10, 4H906-AA; conditions: mean of both orientations
T10 chain: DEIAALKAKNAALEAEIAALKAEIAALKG

4H3844-AA = biological target: T11, 4H3844-AA; conditions: mean of both orientations
T11 chain: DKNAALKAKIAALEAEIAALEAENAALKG

4H678-AA = biological target: T12, 4H678-AA; conditions: mean of both orientations
T12 chain: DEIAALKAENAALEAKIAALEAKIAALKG

4H454-AA = biological target: T13, 4H454-AA; conditions: mean of both orientations
T13 chain: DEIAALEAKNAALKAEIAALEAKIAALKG

4H2729-AA = biological target: T14, 4H2729-AA; conditions: mean of both orientations
T14 chain: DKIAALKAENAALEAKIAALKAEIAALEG

4H3627-AA = biological target: T15, 4H3627-AA; conditions: mean of both orientations
T15 chain: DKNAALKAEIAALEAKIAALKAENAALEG

4H717-AA = biological target: T16, 4H717-AA; conditions: mean of both orientations
T16 chain: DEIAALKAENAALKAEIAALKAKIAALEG

4H2642-AA = biological target: T17, 4H2642-AA
T17 chain: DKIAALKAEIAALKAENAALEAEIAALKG

4H2354-AA = biological target: T18, 4H2354-AA; conditions: mean of both orientations
T18 chain: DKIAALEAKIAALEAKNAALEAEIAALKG

4H234-AA = biological target: T19, 4H234-AA; conditions: mean of both orientations
T19 chain: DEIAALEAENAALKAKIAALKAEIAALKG

4H2151-AA = biological target: T20, 4H2151-AA
T20 chain: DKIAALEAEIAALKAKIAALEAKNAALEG

4H3655-AA = biological target: T21, 4H3655-AA
T21 chain: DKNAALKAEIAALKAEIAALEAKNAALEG

4H3606-AA = biological target: T22, 4H3606-AA; conditions: mean of both orientations
T22 chain: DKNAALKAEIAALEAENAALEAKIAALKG

4H2883-AA = biological target: T23, 4H2883-AA; conditions: mean of both orientations
T23 chain: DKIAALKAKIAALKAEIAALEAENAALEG

4H2949-AA = biological target: T24, 4H2949-AA; conditions: mean of both orientations
T24 chain: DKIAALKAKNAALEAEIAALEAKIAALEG

4H2837-AA = biological target: T25, 4H2837-AA; conditions: mean of both orientations
T25 chain: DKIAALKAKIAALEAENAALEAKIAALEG

4H429-AA = biological target: T26, 4H429-AA; conditions: mean of both orientations
T26 chain: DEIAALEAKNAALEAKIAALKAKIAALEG

4H317-AA = biological target: T27, 4H317-AA; conditions: mean of both orientations
T27 chain: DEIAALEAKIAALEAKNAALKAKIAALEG

4H566-AA = biological target: T28, 4H566-AA; conditions: mean of both orientations
T28 chain: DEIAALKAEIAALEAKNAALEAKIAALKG

4H2190-AA = biological target: T29, 4H2190-AA; conditions: mean of both orientations
T29 chain: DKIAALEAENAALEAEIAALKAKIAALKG

4H794-AA = biological target: T30, 4H794-AA; conditions: mean of both orientations
T30 chain: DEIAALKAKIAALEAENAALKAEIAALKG

4H48-AA = biological target: T31, 4H48-AA; conditions: mean of both orientations
T31 chain: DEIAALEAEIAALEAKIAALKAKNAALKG

4H2165-AA = biological target: T32, 4H2165-AA; conditions: mean of both orientations
T32 chain: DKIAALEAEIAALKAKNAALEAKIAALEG

4H3427-AA = biological target: T33, 4H3427-AA; conditions: mean of both orientations
T33 chain: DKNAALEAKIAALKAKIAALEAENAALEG

4H3343-AA = biological target: T34, 4H3343-AA; conditions: mean of both orientations
T34 chain: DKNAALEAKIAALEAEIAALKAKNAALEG

4H342-AA = biological target: T35, 4H342-AA; conditions: mean of both orientations
T35 chain: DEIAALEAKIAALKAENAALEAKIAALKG

4H2277-AA = biological target: T36, 4H2277-AA; conditions: mean of both orientations
T36 chain: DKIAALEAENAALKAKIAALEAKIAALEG

4H605-AA = biological target: T37, 4H605-AA; conditions: mean of both orientations
T37 chain: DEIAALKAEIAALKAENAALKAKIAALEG

4H335-AA = biological target: T38, 4H335-AA; conditions: mean of both orientations
T38 chain: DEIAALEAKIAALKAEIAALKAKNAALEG

4H3921-AA = biological target: T39, 4H3921-AA; conditions: mean of both orientations
T39 chain: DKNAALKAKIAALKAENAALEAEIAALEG

4H249-AA = biological target: T40, 4H249-AA
T40 chain: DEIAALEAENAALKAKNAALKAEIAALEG

4H780-AA = biological target: T41, 4H780-AA; conditions: mean of both orientations
T41 chain: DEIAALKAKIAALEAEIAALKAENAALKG

4H2575-AA = biological target: T42, 4H2575-AA; conditions: mean of both orientations
T42 chain: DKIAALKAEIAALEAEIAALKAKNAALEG

4H2078-AA = biological target: T43, 4H2078-AA
T43 chain: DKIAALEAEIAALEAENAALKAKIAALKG

4H1867-AA = biological target: T44, 4H1867-AA
T44 chain: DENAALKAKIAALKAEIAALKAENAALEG

DKIAALEAEIAALKAKIAALEAKNAALEG [4H2151-AA]
interaction score (4H993-AA): -1.43
interaction score (4H2505-AA): -1.6
interaction score (4H3112-AA): -0.356
interaction score (4H2393-AA): -1.54
interaction score (4H2754-AA): -1.27
interaction score (4H2944-AA): -1.39
interaction score (4H2617-AA): -0.476
interaction score (4H881-AA): -1.51
interaction score (4H2466-AA): -1.42
interaction score (4H906-AA): -1.28
interaction score (4H3844-AA): -0.871
interaction score (4H678-AA): -1.37
interaction score (4H454-AA): -1.11
interaction score (4H2729-AA): -0.63
interaction score (4H3627-AA): -0.182
interaction score (4H717-AA): -1.61
interaction score (4H2642-AA; mean of both orientations): -1.42
interaction score (4H2354-AA): -1.44
interaction score (4H234-AA): -1.58
interaction score (4H2151-AA): 1.45
interaction score (4H3655-AA; mean of both orientations): -0.942
interaction score (4H3606-AA): -1.24
interaction score (4H2883-AA): 0.105
interaction score (4H2949-AA): -0.904
interaction score (4H2837-AA): -1.4
interaction score (4H429-AA): -1.48
interaction score (4H317-AA): -0.983
interaction score (4H566-AA): -1.47
interaction score (4H2190-AA): -1.15
interaction score (4H794-AA): -1.95
interaction score (4H48-AA): 0.747
interaction score (4H2165-AA): -0.932
interaction score (4H3427-AA): -1.02
interaction score (4H3343-AA): -1.19
interaction score (4H342-AA): -1.26
interaction score (4H2277-AA): -1.38
interaction score (4H605-AA): -1.4

DKIAALEAEIAALEAENAALKAKIAALKG [4H2078-AA]
interaction score (4H993-AA): -1.03
interaction score (4H2505-AA): 1.62
interaction score (4H3112-AA): -0.952
interaction score (4H2393-AA): 2.47
interaction score (4H2754-AA): 0.637
interaction score (4H2944-AA): 0.298
interaction score (4H2617-AA): 2.35
interaction score (4H881-AA): 2.31
interaction score (4H2466-AA): -0.982
interaction score (4H906-AA): -0.59
interaction score (4H3844-AA): -0.801
interaction score (4H678-AA): -0.466
interaction score (4H454-AA): -0.599
interaction score (4H2729-AA): 0.661
interaction score (4H3627-AA): -0.14
interaction score (4H717-AA): -1.62
interaction score (4H335-AA): 0.35
interaction score (4H2642-AA; mean of both orientations): 2.25
interaction score (4H3921-AA): 2.02
interaction score (4H2354-AA): -0.00435
interaction score (4H234-AA): -0.505
interaction score (4H2151-AA; mean of both orientations): -1.39
interaction score (4H3655-AA): -1.22
interaction score (4H3606-AA): -0.297
interaction score (4H2883-AA): 0.158
interaction score (4H249-AA): 0.347
interaction score (4H780-AA): -1.14
interaction score (4H2949-AA): -1.02
interaction score (4H2575-AA): -0.721
interaction score (4H2837-AA): 1.93
interaction score (4H429-AA): 1.79
interaction score (4H317-AA): 1.93
interaction score (4H566-AA): -1.05
interaction score (4H2190-AA): 1.33
interaction score (4H794-AA): 1.84
interaction score (4H48-AA): 0.504
interaction score (4H2165-AA): 0.246
interaction score (4H3427-AA): -0.664
interaction score (4H3343-AA): -1.08
interaction score (4H342-AA): 2.14
interaction score (4H2277-AA): -1.09
interaction score (4H2078-AA): 1.98
interaction score (4H605-AA): 1.68

DENAALKAKIAALKAEIAALKAENAALEG [4H1867-AA]
interaction score (4H993-AA): -1.05
interaction score (4H2505-AA): -1.62
interaction score (4H3112-AA): 0.579
interaction score (4H2393-AA): -1.58
interaction score (4H2754-AA): 1.11
interaction score (4H2944-AA): -0.512
interaction score (4H2617-AA): -1.4
interaction score (4H881-AA): -1.8
interaction score (4H2466-AA): -1.6
interaction score (4H906-AA): -1.71
interaction score (4H3844-AA): 1.01
interaction score (4H678-AA): -1.03
interaction score (4H454-AA): -0.172
interaction score (4H2729-AA): -1.46
interaction score (4H3627-AA): 0.353
interaction score (4H717-AA): -1.28
interaction score (4H335-AA): -0.988
interaction score (4H2642-AA): -2.13
interaction score (4H3921-AA): -1.88
interaction score (4H2354-AA): -1.35
interaction score (4H234-AA): -0.943
interaction score (4H2151-AA; mean of both orientations): -1.27
interaction score (4H3655-AA; mean of both orientations): -0.0304
interaction score (4H3606-AA): -1.11
interaction score (4H2883-AA): -0.898
interaction score (4H780-AA): -0.525
interaction score (4H2949-AA): -1.06
interaction score (4H2575-AA): 1.63
interaction score (4H2837-AA): -1.19
interaction score (4H429-AA): -1.51
interaction score (4H317-AA): -1.01
interaction score (4H566-AA): -1.59
interaction score (4H2190-AA): -0.428
interaction score (4H794-AA): -1.4
interaction score (4H48-AA): 1.5
interaction score (4H2165-AA): -1.77
interaction score (4H3427-AA): -1.26
interaction score (4H3343-AA): 0.12
interaction score (4H342-AA): -0.881
interaction score (4H2277-AA): -1.23
interaction score (4H2078-AA; mean of both orientations): -0.776
interaction score (4H1867-AA): 0.169
interaction score (4H605-AA): -1.5
